According to PMC5289633:

Target: Bio-SAP97 (SAP97 with N-terminal tag for in vivo biotinylation) (UniProt Q62696)
Test: pull-down; streptavidin-sepharose pull-down of biotin-tagged SAP97 or PSD-95 from Triton X-100 extracts (TNE buffer, pH 7.5, 120 mM NaCl, 4°C) of co-transfected HEK293 or HEK293T cells; western blot

UniProt Q62696, sequence (Q62696 whole entry): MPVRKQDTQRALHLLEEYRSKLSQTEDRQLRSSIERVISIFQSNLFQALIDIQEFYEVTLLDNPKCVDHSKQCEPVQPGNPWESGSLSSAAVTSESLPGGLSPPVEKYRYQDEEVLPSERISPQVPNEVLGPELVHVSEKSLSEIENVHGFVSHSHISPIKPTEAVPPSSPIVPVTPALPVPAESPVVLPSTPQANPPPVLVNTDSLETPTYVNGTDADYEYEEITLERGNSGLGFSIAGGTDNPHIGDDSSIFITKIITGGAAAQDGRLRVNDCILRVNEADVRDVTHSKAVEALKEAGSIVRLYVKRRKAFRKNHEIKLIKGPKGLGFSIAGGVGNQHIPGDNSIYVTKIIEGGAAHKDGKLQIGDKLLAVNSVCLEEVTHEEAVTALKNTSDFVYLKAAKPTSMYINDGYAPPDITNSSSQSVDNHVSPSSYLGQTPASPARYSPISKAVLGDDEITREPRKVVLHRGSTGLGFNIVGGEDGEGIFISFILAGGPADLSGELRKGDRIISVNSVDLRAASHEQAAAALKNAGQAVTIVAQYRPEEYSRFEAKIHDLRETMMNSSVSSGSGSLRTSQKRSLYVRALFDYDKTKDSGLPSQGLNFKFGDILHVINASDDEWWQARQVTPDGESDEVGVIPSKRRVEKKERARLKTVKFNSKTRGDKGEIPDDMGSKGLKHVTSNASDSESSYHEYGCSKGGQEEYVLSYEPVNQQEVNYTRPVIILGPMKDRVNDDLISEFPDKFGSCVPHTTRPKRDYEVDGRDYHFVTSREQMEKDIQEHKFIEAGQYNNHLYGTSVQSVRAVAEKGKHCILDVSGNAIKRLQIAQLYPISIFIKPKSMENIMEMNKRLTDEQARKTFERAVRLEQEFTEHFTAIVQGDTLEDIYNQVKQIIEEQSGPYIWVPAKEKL

percent decrease in association against wt GluA1: 60 to 70%
Substance: N-terminally GFP-tagged GluA1 C893S mutant (receptor)
